In patent US9500651B2, “Method for identifying novel minor histocompatibility antigens” (UNIVERSITÉ DE MONTRÉAL, priority 2012, dated 2016):

Target: T1, HLA-A*0301 (Homo sapiens, UniProt P04439)
T1 construct: endogenous in cells; host or cells: EBV-transformed B lymphoblastoid cell lines (B-LCLs) from PBMCs of 2 HLA-identical siblings
Test: MHC class I-associated peptides eluted from B-LCLs by mild acid treatment and identified by LC-MS/MS with personalized database
Format: cell-based
Settings: EBV-transformed B-LCLs of 2 HLA-identical siblings
Experimental: (§1) Peripheral blood mononuclear cells (PBMCs) were isolated from blood samples of 2 HLA-identical siblings. Epstein-Barr virus (EBV)-transformed B lymphoblastoid cell lines (B-LCLs) were derived from PBMCs with Ficoll-Paque™ Plus (Amersham) as described (Tosato and Cohen, 2007). Established B-LCLs were maintained in RPMI 1640 medium supplemented with 10% fetal bovine serum, 25 mM of HEPES, 2 mM L-glutamine and penicillin-streptomycin (all from Invitrogen).
(§2) Three biological replicates of 4×10^8 exponentially growing B-LCLs were prepared from each subject. MHC class I-associated peptides were released by mild acid treatment, pretreated by desalting with an HLB cartridge, filtered with a 3000 Da cut-off column and separated by cation exchange chromatography (SCX) using an off-line 1100 series binary LC system (Agilent Technologies) as previously described (Fortier et al., 2008). Peptides were loaded at 8 uL/min on a homemade strong cation exchange (SCX) column (0.3 mm internal diameter×50 mm length) packed with SCX bulk material (Polysulfoethyl A™, PolyLC). Peptides were separated into five fractions using a linear gradient of 0-25% B in 25 min (solvent A: 5 mM ammonium formate, 15% acetonitrile, ACN, pH 3.0; solvent B: 2 M ammonium formate, 15% ACN, pH 3.0) and brought to dryness using a Speedvac.
(§3) MHC class I-associated peptide fractions were resuspended in 2% aqueous ACN (0.2% formic acid) and analyzed by LC-MS/MS using an Eksigent™ LC system coupled to a LTQ-Orbitrap™ mass spectrometer (Thermo Electron) (Fortier et al., 2008; de Verteuil et al., 2010; Caron et al., 2011). Peptides were separated in a custom C18 reversed phase column (150 μm i.d.×100 mm, Jupiter Proteo™ 4 μm, Phenomenex) at a flow rate of 600 nL/min using a linear gradient of 3-60% aqueous ACN (0.2% formic acid) in 69 mins. Full mass spectra were acquired with the Orbitrap™ analyzer operated at a resolving power of 60 000 (at m/z 400) and collision-activated dissociation tandem mass spectra were acquired in data-dependent mode with the linear ion trap analyzer. Mass calibration used an internal lock mass (protonated (Si(CH3)2O))6; m/z 445.120029) and mass accuracy of peptide measurements was within 5 ppm.
(§4) Mass spectra were analyzed using Xcalibur™ software and peak lists were generated using Mascot™ distiller version 2.1.1 (Matrix Science, http://www.matrixscience.com). Database searches were performed against a non-redundant human Uniprot database (containing 110,361 sequences, released on 28, Jul. 2011) (version 101 of the UniProt Gene Ontology Annotation available from the European Bioinformatics Institute (EBI), an academic research institute located on the Wellcome Trust Genome Campus in Hinxton near Cambridge (UK), part of the European Molecular Biology Laboratory; http://www.ebi.ac.uk/Informationt; Magrane et al., Database Vol. 2011, Article ID bar009; The UniProt Consortium, Nucleic Acids Res. 2011 January; 39(Database issue): D214-D219) and databases specific for each individual (see “in silico translated transcriptome” section) using Mascot (version 2.3, Matrix Science). A Mascot search against a concatenated target/decoy database consisting of combined forward and reverse versions of the Ensembl human reference genome database and of each subject-specific database. Non-redundant peptide sequences with a cutoff score threshold above 15 were selected. The tolerances for precursor and fragment mass values were set to 0.02 and 0.05 Dalton, respectively. Searches were performed without enzyme specificity and a variable modification for oxidation (Met) and deamidation (Asn, Gln). Raw data files were converted to peptide maps comprising m/z values, charge state, retention time and intensity for all detected ions above a threshold of 8000 counts using in-house software (Proteoprofile) (Fortier et al., 2008; de Verteuil et al., 2010; Caron et al., 2011). […]

Presentation at the cell surface by MHC class I allele, presented at the cell surface:
SVLKPGNSK (listed as Homo sapiens) [MiHA peptide from ELF1, rs1056820, serine allele]
AMYDKGPFWSK (listed as Homo sapiens) [MiHA peptide from NQO1, rs1131341, tryptophan allele]
AMYDKGPFRSK (listed as Homo sapiens) [MiHA peptide from NQO1, rs1131341, arginine allele]
VMGNPGTFN (listed as Homo sapiens) [MiHA peptide from RMDN1, rs6980476, asparagine allele]
TVLKPGNSK (listed as Homo sapiens) [MiHA peptide from ELF1, rs1056820, threonine allele]
RVSLPTSPR (listed as Homo sapiens) [MiHA peptide from KIAA0226L, rs1408184, arginine allele]
RVSLPTSPG (listed as Homo sapiens) [MiHA peptide from KIAA0226L, rs1408184, glycine allele]
VMGNPGTFK (listed as Homo sapiens) [MiHA peptide from RMDN1, rs6980476, lysine allele]

Target: HLA-B*0801 (Homo sapiens, UniProt P01889, A93T/A95T/D138N/E176V/E187T/K202T/Q94N/R180D/S35A/V36M/Y33D/Y91F)
Test: as above
Format: cell-based
Settings: EBV-transformed B-LCLs of 2 HLA-identical siblings
Experimental: as §1, §2, §3, §4

Presentation at the cell surface by MHC class I allele, presented at the cell surface:
SLFFRKVAF (listed as Homo sapiens) [MiHA peptide from MTCH2, rs1064608, alanine allele]
ELQEKFLSL (listed as Homo sapiens) [MiHA peptide from CENPF, rs3795517, leucine allele]
SLFFRKVPF (listed as Homo sapiens) [MiHA peptide from MTCH2, rs1064608, proline allele]
ELQEKFSSL (listed as Homo sapiens) [MiHA peptide from CENPF, rs3795517, serine allele]

Target: HLA-B*4403 (Homo sapiens, UniProt P01889, A223V/A65T/A93T/A95T/D201E/D98Y/E176V/E187L/E204Q/E69K/G107R/H137Y/K202T/L105A/L119I/N104T/N87E/Q56L/Q94N/R106L/R155S/R180L/S101N/S121R/S35A/S48T/T118I/V36M/W191S/Y140D/Y91S)
Test: as above
Format: cell-based
Settings: EBV-transformed B-LCLs of 2 HLA-identical siblings
Experimental: as §1, §2, §3, §4

Presentation at the cell surface by MHC class I allele, presented at the cell surface:
QELDGVFQKL (listed as Homo sapiens) [MiHA peptide from ZWINT, rs2241666, glycine allele]
QELDRVFQKL (listed as Homo sapiens) [MiHA peptide from ZWINT, rs2241666, arginine allele]
